Experiments:
[1] = tested on: full thickness 12 mm wound; test: Wound healing assay (Example 3.6); type: in vivo, male Lewis rats; details: for Wound areas: mg/wound: Wound heal 1 0.01, Wound heal 2 0.1, Wound heal 3 1.0, Aloe vera 20
Procedure: Thirty male Lewis rats were divided into 5 groups of 6 rats as outlined below in Table 7. Rats were age and weight matched. Rats were permitted rodent diet and water ad libitum throughout the study.
The animals were weighed two days before the start of the trial and weights grouped from lightest to heaviest. Animals were then randomly assigned to groups based on body weights, using 5×5 Latin squares so that group means were as similar as possible.
Approximately 30 minutes before wounding, each animal was given a subcutaneous injection of Temgesic at the base of the neck (0.075 mg/kg body weight). Each animal was anaesthetised using 3% halothane in oxygen. Once the pedal reflexes had been abolished, the animals were shaved from the base of the skull to the hind limb area using electric clippers. The skin on each rat was disinfected using 0.5% chlorhexidine in 70% ethanol. For each animal, the distance from the base of the skull to the top of the hip joint was measured and the wound position marked with a black felt tip pen, 6 cm below the base of the skull along the spinal axis.
Using asceptic techniques a full thickness incision was made at this position using a sterile 12 mm biopsy punch. Any bleeding was removed using cotton swabs. Care was taken that the punch was dry and that no debris (eg., skin, hair) entered the wounds. […] After photography of each wound using a Canon Digital EOS 20D camera with a F2.8 Macro lens, an aliquot of the sample was applied to the wounds on the rats in Groups A, B, D and E using a Gilson Microman CP 100 positive displacement pipette. The biopsy punch was wiped inside with a swab soaked in sterile saline to remove any tissue fluids and/or debris. The punch was then immersed in 70% ethanol before use on the next animal.
For applications and photographs after day 1 the animals were restrained without being anaesthetised.
(§1) Body weights were measured on days 1, 3, 5, 7, 9, 11, 13, 15, 17, 19, 21 and 23 and deviations from original body weights (on day 1) calculated for each animal. On the same days, photographs were taken using a Canon Digital Eos 20D with a F2.8 Macro lens. Photographs were downloaded and wound areas measured using NIH Image J 1.633u software (National Institutes of Health (NIH), Rockville Pike, Bethesda, Md., United States). A laser speckle image was also taken at the same time as each space photograph was taken. Animals were weighed every second day when the photographic record of wound closure rate was also made.
The redness and swelling of each wound were individually scored from visual observation. These were scored on a scale of 0-3 as follows:
Descriptive statistics were evaluated. […] Major analyses were performed on all data points collected. Preliminary analyses were undertaken on control wounds only using t-tests. Univariate ANOVAs were used to assess differences between treatment and controls and samples nested within treatments. A separate ANOVA assessed whether there was a dose response using the treatment samples only. Assumptions for normality were tested using q-q plots on studentized residuals and heterogeneity of variances were tested using Levene's tests. SPSS 11 for Mac OSX was used for assumption testing and statistical analysis.

[2] = Body weight during wound healing assay (Example 3.6); type: in vivo, male Lewis rats; details: PBS control returned by day 11
Procedure: as §1

rat aortic ring = test: Rat aortic ring angiogenesis assay (Example 4.3); type: cell-based, Lewis rat; details: for % of Control: microvessel growth
Procedure: Four separate studies were carried out to determine the angiogenic effect of crystallin preparations. Each sample was assayed in triplicate. A positive control (VEGF) and a vehicle control containing PBS was also run in triplicate. […] Preliminary statistical significance was assessed with an independent Student t-test at α<0.05. Graphical representation of averages +/− standard errors were determined.
The first study investigated the angiogenic potential of bovine fractions prepared by gel filtration analysis as described in Example 3.2. As described in that Example, the alpha fraction contained αA and αB crystallin, the β H fraction contained all β crystallins, the β L1 fractions contained a sub-fraction of beta crystallins and a high content of βB2 crystallin and beta B3 crystallin and the beta L2 fraction contained only βB2 crystallin and βA3 crystallin.
The second study investigated the angiogenic potential of purified crystallin proteins. Briefly, βB3 crystallin was prepared by heating (97-99° C. for 3 minutes, supernatant collected by centrifugation) and was essentially homogenous. Alpha A crystallin and αB crystallin samples were prepared by ion exchange chromatography as described above and were also essentially homogenous. The Wound Heal 1-3 preparations were also tested in this study.
The third study investigated the angiogenic potential of ovine crystallin proteins compared to their bovine equivalents. Both bovine and ovine crystallin proteins were purified essentially to homogeneity by RP. HPLC using a C4 column, as described below in Example 5. Homogeneity was confirmed by SDS-PAGE. The effect of elastase I treatment of βB2 crystallin was also investigated by comparing the angiogenic potential of intact βB2 crystallin (i.e. undigested) with elastase I digested βB2 crystallin. Elastase I treatment releases the N-terminal and C-terminal extensions of the crystallin protein leaving a globular protein that is monomeric.
In the final study, ovine βB2 crystallin was tested alone or in combination with indoleamine 2,3-dioxygenase (IDO) and ovine alpha B crystallin was tested alone or in combination with tryptophan dioxygenase (TDO)
Briefly, in each study, a single Lewis rat was euthanised and its aorta transferred to a 15 mL Falcon tube containing 10 mL of MCBD-131 medium and stored on ice. After transferring the aorta to a 92×17 mm petri dish containing 10 mL of ice cold MCDB-131, the outer fatty tissue was removed under an Olympus SZ-60 Dissecting microscope. This was undertaken with fibre optic lamp illumination. The aorta was then cut into sequential rings approximately 2 mm in size. Connective tissue was removed with micro scissors and forceps from the outside of the individual rings. Clean rings were stored in a separate petri dish in sterile MCDB-131 medium. Rings were pre-incubated overnight at 37° C. in an atmosphere of 97% air/3% CO2.
To prepare gel sandwiches, 75 mg of fibrinogen was added to 25 mL MCDB-131 medium and shaken gently on a rocker roller for 5 minutes. 3 ml of MCDB-131/fibrinogen solution was added to a 15 mL Falcon tube, followed by 10 μL of thrombin and quickly mixed. A 0.4 mL volume of this fibrinogen-thrombin solution was added to each well on a 24 well plate, 6 wells at a time. Aortic rings were then placed on the setting gel, pushed gently into the gel and left for 45 minutes. These steps were then repeated so each ring was covered with 0.4 mL of gel. Gels were left to set at room temperature. […] The plate was then placed in incubator (37° C., 97% air/3% CO2).
Culture plate were examined daily for signs of infection (fungal growth or yellowing of media) in the wells using an inverted microscope. The growth of microvessels from their perimeters was also observed. Digital photographs of each well were taken seven days after plating using a Pixera PVC-100C digital camera mounted on an OLYMPUS CK-12 microscope and stored on a Macintosh Computer. […]

elastase I = biological target: T1, elastase I (Sus scrofa, UniProt P00772); test: Chaperone activity: protection of elastase I from heat denaturation; type: biochemical; details: boiling water bath for 30 seconds
T1 construct: purchased Worthington Biochemical Corporation 2280
T1 sequence (P00772 27-266): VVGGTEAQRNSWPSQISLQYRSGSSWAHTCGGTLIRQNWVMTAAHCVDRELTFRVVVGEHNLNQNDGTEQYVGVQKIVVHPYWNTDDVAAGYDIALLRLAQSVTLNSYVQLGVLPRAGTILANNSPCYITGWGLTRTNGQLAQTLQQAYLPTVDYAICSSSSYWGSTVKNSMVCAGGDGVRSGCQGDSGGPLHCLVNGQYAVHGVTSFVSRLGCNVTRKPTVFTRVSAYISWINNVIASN
Procedure: Bovine crystallin fractions were tested for ability to protect the proteases elastase I, trypsin and chymotrypsin from heat denaturation. Briefly, the proteases were heated in a boiling water bath for 30 seconds in the presence or absence of the crystallin fractions.

[3] = summary of second and third study

B1: Wound Heal 1: bovine βB2 crystallin, fractionated at pH 5.3 on Sephacryl 300 HR; Group B of Example 3, 0.01 mg/wound (protein)
chain: ASDHQTQAGKPQPLNPKIIIFEQENFQGHSHELNGPCPNLKETGVEKAGSVLVQAGPWVGYEQANCKGEQFVFEKGEYPRWDSWTSSRRTDSLSSLRPIKVDSQEHKITLYENPNFTGKKMEVIDDDVPSFHAHGYQEKVSSVRVQSGTWVGYQYPGYRGLQYLLEKGDYKDSGDFGAPQPQVQSVRRIRDMQWHQRGAFHPSS
Wound areas ([1]; Day 1 (=100)): 100
Wound areas ([1]; Day 3): 86
Wound areas ([1]; Day 5): 75
Wound areas ([1]; Day 7): 69
Wound areas ([1]; Day 9): 54
Wound areas ([1]; Day 11): 32
Wound areas ([1]; Day 13): 18
Wound areas ([1]; Day 15): 13
Wound areas ([1]; Day 17): 8
Wound areas ([1]; Day 19): 4
Wound areas ([1]; Day 21): 1.7
Wound areas ([1]; Day 23): 1.4
mean wound area ([1]; day 5): 123 ± 14.7 mm²
wound area at day 5, statistical significance ([1]; day 5, p=0.045 (Wound Heal 1), p=0.008 (Wound Heal 2)): significantly smaller
healing rate compared to Control group (PBS), in words ([1]; rat, in vivo): slightly faster healing rate than the reference group over the first 7 days
day by which mean body weight had returned to the starting (pre-wounding) weight [2]: ≤ 14 days
% of Control (rat aortic ring; second study, 200 μg/mL): 94.52%
chaperone activity: protection of elastase I from heat denaturation (in words) (elastase I): not

B2: Bovine αB crystallin: bovine αB crystallin prepared by ion exchange chromatography, essentially homogenous (protein)
chain: MDIAIHHPWIRRPFFPFHSPSRLFDQFFGEHLLESDLFPASTSLSPFYLRPPSFLRAPSWIDTGLSEMRLEKDRFSVNLDVKHFSPEELKVKVLGDVIEVHGKHEERQDEHGFISREFHRKYRIPADVDPLAITSSLSSDGVLTVNGPRKQASGPERTIPITREEKPAVTAAPKK
% of Control (rat aortic ring; second study, 200 μg/mL): 85.21%
chaperone activity: protection of elastase I from heat denaturation (in words) (elastase I): able to protect elastase I from heat inactivation

B3: Bovine βB2 crystallin (non-elastase treated): intact bovine βB2 crystallin prepared by RP HPLC on C4 column (protein, UniProt P02522 2-205, looked up)
Beta-crystallin B2: B1 chain
angiogenic activity (in words) (rat aortic ring; [3]): not angiogenic
% of Control (rat aortic ring; third study, 100 μg/mL): 93.4%

B4: Ovine βB2 crystallin: intact ovine βB2 crystallin prepared by RP HPLC on C4 column (protein)
chain: ASDHQTQAGKPQPLNPKIIIFEQENFQGHSHELNGPCPNLKETGVEKAGSVLVQAGPWVGYEQANCKGEQFVFEKGEYPRWDSWTSSRRTDSLSSLRPIKVDSQEHKITLYENPNFTGKKMEVIDDDVPSFHAHGYQEKVSSVRVQSGTWVGYQYPGYRGLQYLLEKGDYKDSGDFGAPQPQVQSVRRIRDMQWHQRGAFHPS
angiogenic activity (in words) (rat aortic ring; [3]): not angiogenic
% of Control (rat aortic ring; third study, 100 μg/mL): 103.5%

B5: Tryptophan dioxygenase TDO: tryptophan hydrolyzing enzyme (protein, UniProt P48775 1-406, looked up)
Tryptophan 2,3-dioxygenase: MSGCPFLGNNFGYTFKKLPVEGSEEDKSQTGVNRASKGGLIYGNYLHLEKVLNAQELQSETKGNKIHDEHLFIITHQAYELWFKQILWELDSVREIFQNGHVRDERNMLKVVSRMHRVSVILKLLVQQFSILETMTALDFNDFREYLSPASGFQSLQFRLLENKIGVLQNMRVPYNRRHYRDNFKGEENELLLKSEQEKTLLELVEAWLERTPGLEPHGFNFWGKLEKNITRGLEEEFIRIQAKEESEEKEEQVAEFQKQKEVLLSLFDEKRHEHLLSKGERRLSYRALQGALMIYFYREEPRFQVPFQLLTSLMDIDSLMTKWRYNHVCMVHRMLGSKAGTGGSSGYHYLRSTVSDRYKVFVDLFNLSTYLIPRHWIPKMNPTIHKFLYTAEYCDSSYFSSDESD
angiogenic activity (in words) (rat aortic ring; forth study, 100 μg/mL): stimulatory
% of Control (rat aortic ring; forth study, 100 μg/mL): 106.2%
